Test results reported in patent publication US10344077.

T1: Jo-1 (UniProt P12081)
T1 sequence (looked up): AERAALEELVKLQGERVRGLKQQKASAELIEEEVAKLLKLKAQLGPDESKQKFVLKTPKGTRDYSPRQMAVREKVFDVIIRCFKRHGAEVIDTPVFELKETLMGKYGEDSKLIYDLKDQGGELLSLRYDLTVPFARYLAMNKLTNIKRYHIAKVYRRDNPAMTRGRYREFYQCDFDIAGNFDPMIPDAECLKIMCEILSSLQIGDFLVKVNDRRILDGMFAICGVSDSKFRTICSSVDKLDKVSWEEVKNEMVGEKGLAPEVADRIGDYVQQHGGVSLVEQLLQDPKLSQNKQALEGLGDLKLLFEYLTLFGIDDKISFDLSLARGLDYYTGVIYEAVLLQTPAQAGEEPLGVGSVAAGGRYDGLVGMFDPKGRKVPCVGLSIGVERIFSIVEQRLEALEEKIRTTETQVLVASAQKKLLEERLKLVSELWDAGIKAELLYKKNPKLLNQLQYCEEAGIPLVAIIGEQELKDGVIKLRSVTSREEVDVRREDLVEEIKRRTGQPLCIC

T2: Centromere B (UniProt P07199)
T2 sequence (looked up): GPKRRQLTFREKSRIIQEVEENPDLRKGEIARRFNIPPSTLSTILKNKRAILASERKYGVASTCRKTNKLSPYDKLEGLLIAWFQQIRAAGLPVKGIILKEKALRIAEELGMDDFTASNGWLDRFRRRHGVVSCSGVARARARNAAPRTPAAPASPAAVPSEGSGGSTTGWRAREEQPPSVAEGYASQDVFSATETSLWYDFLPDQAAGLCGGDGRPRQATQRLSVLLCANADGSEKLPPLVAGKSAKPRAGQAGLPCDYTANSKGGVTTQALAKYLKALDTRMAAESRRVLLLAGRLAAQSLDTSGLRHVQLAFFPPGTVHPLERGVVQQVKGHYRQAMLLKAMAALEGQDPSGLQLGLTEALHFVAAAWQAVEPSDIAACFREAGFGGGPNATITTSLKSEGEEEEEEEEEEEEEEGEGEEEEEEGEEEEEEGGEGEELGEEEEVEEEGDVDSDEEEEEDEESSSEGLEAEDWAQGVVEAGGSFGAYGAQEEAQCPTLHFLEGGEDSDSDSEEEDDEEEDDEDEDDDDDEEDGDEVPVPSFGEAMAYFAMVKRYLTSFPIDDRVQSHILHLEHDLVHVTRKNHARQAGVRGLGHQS


Tests used:
Jo-1 [1] = molecular target: T1, Jo-1; test: AtheNA, Ab 25 ug/ml
Centromere B [2] = molecular target: T2, Centromere B; test: AtheNA, Ab 25 ug/ml
RNP (ribonucleoprotein) [3] = test: AtheNA, Ab 25 ug/ml
Scl-70 [4] = molecular target: Scl-70 (UniProt P11387); test: AtheNA, Ab 25 ug/ml
SSA [5] = test: AtheNA, Ab 25 ug/ml
Histones [6] = test: AtheNA, Ab 25 ug/ml
Sm (Smith antigen) [7] = test: AtheNA, Ab 25 ug/ml
AtheNA, Ab 6.25 ug/ml = substrate: T3, SSB (UniProt P05455); test: AtheNA, Ab 6.25 ug/ml
T3 sequence (looked up): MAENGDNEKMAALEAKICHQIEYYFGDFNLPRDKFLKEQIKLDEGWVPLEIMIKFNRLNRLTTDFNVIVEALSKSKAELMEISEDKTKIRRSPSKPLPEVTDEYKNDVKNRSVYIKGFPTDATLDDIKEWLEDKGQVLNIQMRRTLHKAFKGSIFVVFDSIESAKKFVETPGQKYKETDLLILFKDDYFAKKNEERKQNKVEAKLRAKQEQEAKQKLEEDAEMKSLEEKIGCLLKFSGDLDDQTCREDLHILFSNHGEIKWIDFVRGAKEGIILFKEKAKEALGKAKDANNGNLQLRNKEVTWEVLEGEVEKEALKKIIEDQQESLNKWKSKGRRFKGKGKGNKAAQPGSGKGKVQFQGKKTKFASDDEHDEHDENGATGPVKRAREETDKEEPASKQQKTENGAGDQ

Jo-1 [8] = molecular target: T1, Jo-1; test: AtheNA, Ab 12.5 ug/ml
Centromere B [9] = molecular target: T2, Centromere B; test: AtheNA, Ab 12.5 ug/ml
RNP (ribonucleoprotein) [10] = test: AtheNA, Ab 12.5 ug/ml
Scl-70 [11] = molecular target: Scl-70 (UniProt P11387); test: AtheNA, Ab 12.5 ug/ml
SSA [12] = test: AtheNA, Ab 12.5 ug/ml
Histones [13] = test: AtheNA, Ab 12.5 ug/ml
Sm (Smith antigen) [14] = test: AtheNA, Ab 12.5 ug/ml
Jo-1 [15] = molecular target: T1, Jo-1; test: AtheNA, Ab 6.25 ug/ml
Centromere B [16] = molecular target: T2, Centromere B; test: AtheNA, Ab 6.25 ug/ml
RNP (ribonucleoprotein) [17] = test: AtheNA, Ab 6.25 ug/ml
Scl-70 [18] = molecular target: Scl-70 (UniProt P11387); test: AtheNA, Ab 6.25 ug/ml
SSA [19] = test: AtheNA, Ab 6.25 ug/ml
Histones [20] = test: AtheNA, Ab 6.25 ug/ml
Sm (Smith antigen) [21] = test: AtheNA, Ab 6.25 ug/ml
AtheNA, Ab 25 ug/ml = substrate: T3, ; test: AtheNA, Ab 25 ug/ml
AtheNA, Ab 12.5 ug/ml = substrate: T3, ; test: AtheNA, Ab 12.5 ug/ml
Centromere B [22] = molecular target: T2, Centromere B; test: AtheNA, Ab 50 ug/ml
SSA [23] = test: AtheNA, Ab 50 ug/ml
Histones [24] = test: AtheNA, Ab 50 ug/ml
Sm (Smith antigen) [25] = test: AtheNA, Ab 50 ug/ml

Scl-70, sequence (P11387 2-765 limits assumed): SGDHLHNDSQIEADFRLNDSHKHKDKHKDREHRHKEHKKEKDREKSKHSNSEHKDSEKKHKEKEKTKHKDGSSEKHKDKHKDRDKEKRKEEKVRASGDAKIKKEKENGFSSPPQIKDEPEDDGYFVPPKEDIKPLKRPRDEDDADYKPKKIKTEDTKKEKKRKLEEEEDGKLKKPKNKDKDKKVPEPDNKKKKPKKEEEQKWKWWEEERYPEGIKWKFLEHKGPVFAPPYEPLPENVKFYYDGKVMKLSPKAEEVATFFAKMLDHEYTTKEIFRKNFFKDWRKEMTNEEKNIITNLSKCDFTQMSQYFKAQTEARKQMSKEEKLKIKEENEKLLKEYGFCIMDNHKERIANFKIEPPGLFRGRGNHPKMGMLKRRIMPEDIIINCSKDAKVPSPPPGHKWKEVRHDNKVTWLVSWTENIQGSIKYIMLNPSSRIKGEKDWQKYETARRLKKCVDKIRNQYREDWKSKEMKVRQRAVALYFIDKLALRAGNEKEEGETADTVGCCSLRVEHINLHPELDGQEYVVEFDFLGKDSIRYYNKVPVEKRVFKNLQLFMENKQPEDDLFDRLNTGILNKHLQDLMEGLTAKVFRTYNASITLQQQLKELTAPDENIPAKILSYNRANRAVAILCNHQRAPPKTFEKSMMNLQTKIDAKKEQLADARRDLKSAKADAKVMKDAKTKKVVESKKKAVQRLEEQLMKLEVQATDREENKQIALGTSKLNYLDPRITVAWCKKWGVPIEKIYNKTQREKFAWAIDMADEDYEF

Row | Athena reading (relative luminescence units) (Jo-1 [1]) | Athena reading (relative luminescence units) (Centromere B [2]) | Athena reading (relative luminescence units) (RNP (ribonucleoprotein) [3]) | Athena reading (relative luminescence units) (SSA [5]) | Athena reading (relative luminescence units) (Histones [6]) | Athena reading (relative luminescence units) (Sm (Smith antigen) [7]) | Athena reading (relative luminescence units) (AtheNA, Ab 6.25 ug/ml) | Athena reading (relative luminescence units) (Jo-1 [8]) | Athena reading (relative luminescence units) (Centromere B [9]) | Athena reading (relative luminescence units) (RNP (ribonucleoprotein) [10]) | Athena reading (relative luminescence units) (Scl-70 [11]) | Athena reading (relative luminescence units) (SSA [12]) | Athena reading (relative luminescence units) (Histones [13]) | Athena reading (relative luminescence units) (Sm (Smith antigen) [14]) | Athena reading (relative luminescence units) (Jo-1 [15]) | Athena reading (relative luminescence units) (Centromere B [16]) | Athena reading (relative luminescence units) (RNP (ribonucleoprotein) [17]) | Athena reading (relative luminescence units) (Scl-70 [18]) | Athena reading (relative luminescence units) (SSA [19]) | Athena reading (relative luminescence units) (Histones [20]) | Binder | further results
1 | 5 | 14 | 6 | 15 | 20 | 11 | 4 | 6 | 8 | 5 | 3 | 14 | 13 | 7 | 2 | 6 | 3 | 1 | 15 | 9 | CH241 (antibody, from a related filing, V domains shown) VH: QVQLVQSGAAVKKPGASVRVSCKASGYTFTSSHIHWVRQAPGQGPEWMGMIDPSVGRPTTAGKFQGRVTMTRDRYTSTAYMDLSSLRSEDTAVYYCARSVETTGSLLYFDYWGQGTLITVSS VL: EIVLTQSPATLSVSPGERATLSCRASQSVRSNIAWYQQKPGQAPRLLIHGASTRATGIPGRFSGSGSGPEFTLAISSVQSEDFAVYYCQQYNDWWTFGQGTKVEIK | Athena reading (relative luminescence units) (Scl-70 [4]): 4; Athena reading (relative luminescence units) (Sm (Smith antigen) [21]): 4; Athena reading (relative luminescence units) (AtheNA, Ab 25 ug/ml): 6; Athena reading (relative luminescence units) (AtheNA, Ab 12.5 ug/ml): 8
2 | 11 | 24 | 11 | 16 | 27 | 22 | 5 | 7 | 15 | 8 | 4 | 14 | 18 | 13 | 5 | 8 | 6 | 3 | 12 | 9 | CH240_4A/293i (antibody, from a related filing, V domains shown) VH: QVQLVQSGTEVRKPGASVTISCKASGYTFNNFYVHWVRQAPGQGLECMGWIDPSVGRISYGQKFQGRVTMTRDRSTSTVYMGLSSLRSEDTAMYYCVRDVGTEGSLLHFDHWGQGTLVIVSA VL: EIVLTQSPATLSVSPGERATLSCRATQSVRSNLAWYQQKRGQAPRLLIYSASTRATGIPARFSGSGSGTEFTLTISSVQSEDFAVYYCLQYNNWWTFGQGTKVEIK | Athena reading (relative luminescence units) (Scl-70 [4]): 6; Athena reading (relative luminescence units) (Sm (Smith antigen) [21]): 9; Athena reading (relative luminescence units) (AtheNA, Ab 25 ug/ml): 11; Athena reading (relative luminescence units) (AtheNA, Ab 12.5 ug/ml): 5

Second part, the binder before the results:

Row | Binder | Athena reading (relative luminescence units) (Jo-1 [1]) | Athena reading (relative luminescence units) (Centromere B [2]) | Athena reading (relative luminescence units) (RNP (ribonucleoprotein) [3]) | Athena reading (relative luminescence units) (SSA [5]) | Athena reading (relative luminescence units) (Histones [6]) | Athena reading (relative luminescence units) (Sm (Smith antigen) [7]) | Athena reading (relative luminescence units) (AtheNA, Ab 6.25 ug/ml) | Athena reading (relative luminescence units) (Jo-1 [8]) | Athena reading (relative luminescence units) (Centromere B [9]) | Athena reading (relative luminescence units) (RNP (ribonucleoprotein) [10]) | Athena reading (relative luminescence units) (Scl-70 [11]) | Athena reading (relative luminescence units) (SSA [12]) | Athena reading (relative luminescence units) (Histones [13]) | Athena reading (relative luminescence units) (Sm (Smith antigen) [14]) | Athena reading (relative luminescence units) (Jo-1 [15]) | Athena reading (relative luminescence units) (Centromere B [16]) | Athena reading (relative luminescence units) (RNP (ribonucleoprotein) [17]) | Athena reading (relative luminescence units) (Scl-70 [18]) | Athena reading (relative luminescence units) (SSA [19]) | Athena reading (relative luminescence units) (Histones [20]) | further results
3 | CH235_4A (antibody, from a related filing, V domains shown) VH: QVQLVQSGAEVKKPGASVTVSCQASGYTFTNYYVHWVRQAPGQGLQLMGWIDPSWGRTNYAQNFQGRITMTRDTSTSTVYMEMRSLRSEDTAVYYCARNVATEGSLLHYDYWGQGTLVTVSA VL: EIVLTQSPATLSVSPGERATLSCRASQSVRSNLAWYQQRPGQAPRLLIYGTSTRATGVPARFSGRGSGTEFTLAISSMQSEDFAVYLCLQYNNWWTFGQGTKVEIK | 4 | 6 | 5 | 13 | 7 | 7 | 6 | 3 | 5 | 6 | 2 | 13 | 5 | 8 | 2 | 3 | 3 | 2 | 12 | 5 | Athena reading (relative luminescence units) (Scl-70 [4]): 4; Athena reading (relative luminescence units) (Sm (Smith antigen) [21]): 5; Athena reading (relative luminescence units) (AtheNA, Ab 25 ug/ml): 5; Athena reading (relative luminescence units) (AtheNA, Ab 12.5 ug/ml): 5
4 | CH239_4A/293i (antibody, from a related filing, V domains shown) VH: QVQLVQSGAEVRKPGASVTVSCKASGYTFNNFYVHWVRQAPGQGLECMGWIDPSVGRINYAQKFQGRVTMTRDRSTSTVYMGLSSLRSEDTAIYYCVRDVGTEGSLLHFDHWGQGTLVIVSA VL: EIVLTQSPATLSVSPGERATLSCRATQSVRSNVAWYQQKPGQAPRLLIYSASTRATGIPARFSGSGSGTEFTLTIASMQSEDFAVYYCLQYDDWWTFGQGTKVEIK | 11 | 199 | 96 | 306 | 253 | 237 | 5 | 8 | 216 | 85 | 48 | 277 | 263 | 277 | 8 | 260 | 78 | 49 | 178 | 266 | Athena reading (relative luminescence units) (Centromere B [22]): 173; Athena reading (relative luminescence units) (SSA [23]): 289; Athena reading (relative luminescence units) (Histones [24]): 228; Athena reading (relative luminescence units) (Sm (Smith antigen) [25]): 250; Athena reading (relative luminescence units) (Sm (Smith antigen) [21]): 285; Athena reading (relative luminescence units) (AtheNA, Ab 25 ug/ml): 8; Athena reading (relative luminescence units) (AtheNA, Ab 12.5 ug/ml): 6
